Reference: ChEMBL document CHEMBL3758119, “Functionalized imidazolium and benzimidazolium salts as paraoxonase 1 inhibitors: Synthesis, characterization and molecular docking studies” (Bioorg Med Chem, 2016)

Substrate: CCCCn1cc[n+](Cc2cc(=O)oc3cc(C)cc(C)c23)c1
Conditions: Homo sapiens
Description: Activity of human serum PON1 using paraoxon as substrate by Lineweaver-Burk plot analysis

B1: Serum paraoxonase/arylesterase 1 (Homo sapiens), P27169 (protein)
chain: MAKLIALTLLGMGLALFRNHQSSYQTRLNALREVQPVELPNCNLVKGIETGSEDLEILPNGLAFISSGLKYPGIKSFNPNSPGKILLMDLNEEDPTVLELGITGSKFDVSSFNPHGISTFTDEDNAMYLLVVNHPDAKSTVELFKFQEEEKSLLHLKTIRHKLLPNLNDIVAVGPEHFYGTNDHYFLDPYLQSWEMYLGLAWSYVVYYSPSEVRVVAEGFDFANGINISPDGKYVYIAELLAHKIHVYEKHANWTLTPLKSLDFNTLVDNISVDPETGDLWVGCHPNGMKIFFYDSENPPASEVLRIQNILTEEPKVTQVYAENGTVLQGSTVASVYKGKLLIGTVFHKALYCEL
Km: 40.6 µM
